# Laboratory results: US20200199241A1 (Chugai, published 2020)
# Positions count from the first letter of the chain named.
# T1: FcγRIIb (human, UniProt P31994 43-217, limits assumed)
# T1 construct: SPR analyte; also called FcγIIB; CD32
# T1 sequence: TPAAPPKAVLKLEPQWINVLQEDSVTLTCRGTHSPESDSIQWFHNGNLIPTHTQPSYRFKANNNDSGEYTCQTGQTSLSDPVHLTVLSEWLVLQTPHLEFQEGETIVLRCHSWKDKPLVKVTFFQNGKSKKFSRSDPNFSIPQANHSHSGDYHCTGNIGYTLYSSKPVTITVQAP
# T2: FcγRIIa type H (human, UniProt P12318 36-217)
# T2 construct: SPR analyte; also called FcγRIIaH
# T2 sequence: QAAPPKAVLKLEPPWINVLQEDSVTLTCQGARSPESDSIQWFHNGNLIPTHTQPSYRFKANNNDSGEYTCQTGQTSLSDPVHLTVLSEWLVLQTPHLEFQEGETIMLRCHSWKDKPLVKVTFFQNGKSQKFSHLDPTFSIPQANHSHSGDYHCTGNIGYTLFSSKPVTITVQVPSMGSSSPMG
# T3: FcγRIIa type R (human, UniProt P12318 36-217)
# T3 construct: SPR analyte; also called FcγRIIaR; FcγRIIa(R)
# T3 chain: T2 sequence with H133R
# B1: IL6R-BF648/IL6R-L (antibody, human IgG1)
# heavy: not shown
# light: DIQMTQSPSSLSASVGDRVTITCRASQDISSYLNWYQQKPGKAPKLLIYYTSRLHSGVPSRFSGSGSGTDFTFTISSLQPEDIATYYCQQGNTLPYTFGQGTKVEIK
# B2: IL6R-BP082/IL6R-L (antibody, human IgG1)
# heavy: QVQLQESGPGLVKPSETLSLTCAVSGHSISHDHAWSWVRQPPGEGLEWIGFISYSGITNYNPSLQGRVTISRDNSKNTLYLQMNSLRAEDTAVYYCARSLARTTAMDYWGEGTLVTVSSASTKGPSVFPLAPSSKSTSGGTAALGCLVKDYFPEPVTVSWNSGALTSGVHTFPAVLQSSGLYSLSSVVTVPSSSLGTQTYICNVNHKPSNTKVDKKVEPKSCDKTHTCPPCPAPDLLGGDSVFLFPPKPKDTLMISRTPEVTCVVVDVSHEDPEVKFNWYVDGVEVHNAKTKPREEQYNSTYRVVSVLTVLHQDWLNGKEYKCKVSNKALPKPIEKTISKAKGQPREPQVYTLPPSRDELTKNQVSLTCLVKGFYPSDIAVEWESNGQPENNYKTTPPVLDSDGSFFLYSKLTVDKSRWQQGNVFSCSVMHEALHNHYTQESLSLSP
# light: B1 light
# B3: IL6R-BP131/IL6R-L (antibody, human IgG1)
# heavy: B2 heavy with G239D
# light: B1 light
# B4: IL6R-BP149/IL6R-L (antibody, human IgG1)
# heavy: B2 heavy with L236Y, G239D, Y298D, K328A
# light: B1 light
# B5: IL6R-BP143/IL6R-L (antibody, human IgG1)
# heavy: B2 heavy with D235E, L236Y, K328A, K332A
# light: B1 light
# B6: IL6R-BP086/IL6R-L (antibody, human IgG1)
# heavy: B2 heavy with D235E, K328A
# light: B1 light
# B7: IL6R-BP151/IL6R-L (antibody, human IgG1)
# heavy: B2 heavy with L236Y, G239D, K328A, K332R
# light: B1 light
# B8: IL6R-BP087/IL6R-L (antibody, human IgG1)
# heavy: B2 heavy with D235E, L236Y
# light: B1 light
# B9: IL6R-BP177/IL6R-L (antibody, human IgG1)
# heavy: B2 heavy with L236Y, G239D, P273G, K328D
# light: B1 light
# B10: IL6R-BP150/IL6R-L (antibody, human IgG1)
# heavy: B2 heavy with D235E, L236Y, G239D, K328A, K332R
# light: B1 light
# B11: IL6R-BP180/IL6R-L (antibody, human IgG1)
# heavy: B2 heavy with D235E, G239D, P273G
# light: B1 light
# B12: IL6R-BP130/IL6R-L (antibody, human IgG1)
# heavy: B2 heavy with V325M
# light: B1 light
# B13: IL6R-BP152/IL6R-L (antibody, human IgG1)
# heavy: B2 heavy with L236Y, G239D, Y298D, K328A, K332R
# light: B1 light
# B14: IL6R-BP178/IL6R-L (antibody, human IgG1)
# heavy: B2 heavy with G239D, P273G
# light: B1 light
# Target: T1, FcγRIIb
# Assay: ratio of SPR KDs: KD for FcγRIIaR over KD for FcγRIIb
# Source text: (§1) Furthermore, KD(IIaR)/KD(IIb) and KD(IIaH)/KD(IIb) in the table respectively represent the value obtained by dividing the KD value of each variant for FcγRIIaR by the KD value of each variant for FcγRIIb, and the value obtained by dividing the KD value of each variant for FcγRIIaH by the KD value of each variant for FcγRIIb.
row,KD(IIaR)/KD(IIb),Binder
1,13,B1
2,22.8,B2
3,12.5,B3
4,15,B4
5,10,B5
6,17.1,B6
7,16.9,B7
8,16,B8
9,13.8,B9
10,17.7,B10
11,18.6,B11
12,17.5,B12

# Target: T2, FcγRIIa type H
# Assay: SPR (Biacore), antibody captured, FcγR analyte
# Source text: (§2) Furthermore, KD(IIaR)/KD(IIb) and KD(IIaH)/KD(IIb) in the table respectively represent the value obtained by dividing the KD value of each variant for FcγRIIaR by the KD value of each variant for FcγRIIb, and the value obtained by dividing the KD value of each variant for FcγRIIaH by the KD value of each variant for FcγRIIb. KD(IIb) of the parent polypeptide/KD(IIb) of the altered polypeptide refers to the value obtained by dividing the KD value of the parent polypeptide for FcγRIIb by the KD value of each variant for FcγRIIb.
row,Kd [nM],Binder
1,40000,B1
2,37000,B2
3,14000,B3
4,8400,B4
5,27000,B5
6,34000,B6
7,5600,B13
8,4700,B7
9,21000,B8
10,14000,B14
11,8200,B9
12,3400,B10
13,18000,B11
14,26000,B12

# Target: T1, FcγRIIb
# Assay: SPR (Biacore), antibody captured, FcγR analyte
# Source text: as §2
row,Kd [nM],Binder
1,1200,B1
2,540,B2
3,250,B3
4,93,B4
5,570,B5
6,570,B6
7,41,B13
8,40,B7
9,610,B8
10,51,B14
11,52,B9
12,31,B10
13,62,B11
14,300,B12

# Target: T4, FcγRIIIa type V (human, UniProt P08637 17-208, limits assumed)
# T4 construct: SPR analyte; allotype V158 was used here; also called FcγRIIIaV; FcγRIIIa(V)
# T4 sequence (P08637 other isoform, or with tags, fused parts or gaps limits assumed): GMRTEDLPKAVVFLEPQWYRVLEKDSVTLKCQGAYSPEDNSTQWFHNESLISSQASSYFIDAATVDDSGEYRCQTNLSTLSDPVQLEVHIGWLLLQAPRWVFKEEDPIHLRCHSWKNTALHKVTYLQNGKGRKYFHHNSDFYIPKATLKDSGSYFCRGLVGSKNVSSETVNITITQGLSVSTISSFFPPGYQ
# Assay: SPR (Biacore), antibody captured, FcγR analyte
# Source text: as §2
row,Kd [nM],Binder
1,71000,B1
2,81000,B2
3,59000,B3
4,37000,B4
5,62000,B5
6,57000,B6
7,31000,B7
8,44000,B8
9,37000,B9
10,34000,B10
11,70000,B11
12,71000,B12

# Target: T5, FcγRIa (human, UniProt P12314 16-292, limits assumed)
# T5 construct: SPR analyte; also called CD64
# T5 sequence (P12314 16-292 limits assumed): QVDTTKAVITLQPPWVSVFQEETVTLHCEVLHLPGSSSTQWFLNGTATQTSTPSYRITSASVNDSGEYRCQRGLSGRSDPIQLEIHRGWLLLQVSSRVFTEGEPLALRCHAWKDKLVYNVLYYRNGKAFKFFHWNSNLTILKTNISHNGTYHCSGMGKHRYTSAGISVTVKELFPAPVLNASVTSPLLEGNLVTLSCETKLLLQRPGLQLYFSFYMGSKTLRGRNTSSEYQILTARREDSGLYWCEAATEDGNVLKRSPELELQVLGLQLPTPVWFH
# Assay: SPR (Biacore), antibody captured, FcγR analyte
# Source text: as §2
row,Kd [nM],Binder
1,11,B1
2,18,B2
3,120,B3
4,120,B4
5,16,B5
6,27,B6
7,73,B13
8,84,B7
9,38,B8
10,43,B14
11,33,B9
12,320,B10
13,1.8,B12

# Target: T3, FcγRIIa type R
# Assay: SPR (Biacore), antibody captured, FcγR analyte
# Source text: as §2
row,Kd [nM],Binder
1,15000,B1
2,12000,B2
3,3100,B3
4,1400,B4
5,5700,B5
6,9700,B6
7,810,B13
8,670,B7
9,9700,B8
10,930,B14
11,710,B9
12,550,B10
13,1200,B11
14,5300,B12

# Target: T1, FcγRIIb
# Assay: ratio of SPR KDs: KD for FcγRIIaH over KD for FcγRIIb
# Source text: as §1
row,KD(IIaH)/KD(IIb),Binder
1,33.9,B1
2,69,B2
3,56.9,B3
4,89.9,B4
5,47.1,B5
6,59.9,B6
7,118,B7
8,34.7,B8
9,159,B9
10,109,B10
11,191,B11
12,85.5,B12

# Target: T1, FcγRIIb
# Assay: ratio of SPR KDs; reference IL6R-B3/IL6R-L
# Source text: as §2
row,KD(IIb) of the parent polypeptide/KD(IIb) of altered polypeptide,Binder
1,2.5,B1
2,5.8,B2
3,12.6,B3
4,33.1,B4
5,5.4,B5
6,5.4,B6
7,75,B13
8,77.4,B7
9,5.1,B8
10,60.1,B14
11,60,B9
12,99,B10
13,49.9,B11
14,10.2,B12

# Target: T3, FcγRIIa type R
# Assay: ratio of SPR KDs; stronger receptor here FcγRIIaR; reference IL6R-B3/IL6R-L (FcγRIIaH)
# Source text: as §2
row,KD of the stronger of FcγRIIaR/FcγRIIaH binding of the variant / that of the parent polypeptide,Binder
1,19.9,B1
2,15.8,B2
3,4,B3
4,1.8,B4
5,7.5,B5
6,12.6,B6
7,1,B13
8,0.9,B7
9,12.6,B8
10,1.2,B14
11,0.9,B9
12,0.7,B10
13,1.5,B11
14,6.9,B12
